Positions count from the first letter of the chain named.
Target: HCV Core 134-171-TT peptide (ALRZ-9 peptide) (HCV-1)
Experiment: SPR, captured mAb;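 further: Anti-HCV Core mAbs from hybridoma supernatants held on a rabbit anti-mouse IgG CM5 surface, peptide flowed over 3 min then 4 min dissociation, duplicate concentrations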

B1: HCV 208B-560 (antibody, V domains shown)
VH: EVQLQQSGPELEKPGASVKISCKTSGYTFTEYAMHWVKQSHGMSLEWIGGINPSNGNAIYNQIFKDKATLTVDRSSSTAYMGLRSLTFGDSGVYFCVRRQLDFFDYWGQGASLTVSS
VL: DIVVTQSPASLAVSLGQRATISCRASQSVSTSRYSYLHWYQQKPGQPPKLLIKYASNLESGVPARFSGSGSGTDFTLNIHPVGEEDTATYYCQHSWEFPFTFGSGTKLEIKR
Kd: 0.23 nM | koff: 0.00026 s⁻¹ | kon: 1.1e+06 M⁻¹ s⁻¹

B2: HCV 208A-1064 (antibody, V domains shown)
VH: EVQLQQSGPELVKPGASVKISCKTSGYTFTEYAMHWMKQSHGKSLEWIGGINPTNGDTIYNQKFKDKAKLTVDRSSSTAYMELRSLTSDDSALFYCARRELDYFASWGQGTTLTVSS
VL: B1 VL with V4L, A12I, R18T, Y34F, Y40I, A64V, G83E, Y91F, E109K
Kd: 0.21 nM | koff: 0.00034 s⁻¹ | kon: 1.6e+06 M⁻¹ s⁻¹

B3: HCV 208A-830 (antibody, V domains shown)
VH: EVRLQQPGPEVEKPGASVKISCKTSGYTFTEYAIHWVKQSHGESLEWIGGINPSNGDPIYNQIFKDKATLTVDRSSNTAYMGLRSLTVGDSGVYFCVRRQLDYFDFWGQGASLTVSS
VL: B1 VL with V4L, A25S, T87P
Kd: 0.16 nM | koff: 0.00054 s⁻¹ | kon: 3.4e+06 M⁻¹ s⁻¹

B4: HCV 208A-920 (antibody, V domains shown)
VH: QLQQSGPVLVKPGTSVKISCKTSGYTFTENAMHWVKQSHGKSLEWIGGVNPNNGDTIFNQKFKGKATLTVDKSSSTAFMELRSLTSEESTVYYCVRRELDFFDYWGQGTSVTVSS
VL: B1 VL with V4L, L37M, G83A, T89A
Kd: 0.39 nM | koff: 0.00056 s⁻¹ | kon: 1.5e+06 M⁻¹ s⁻¹

B5: HCV 208A-133 (antibody, V domains shown)
VH: QLQQSGPVLVGPGASVMISCKTSGYTFTENAMHWVEQSHGKSLEWIGGVNPNNGDTIFNQKFKGKATLTVDKSSSTAFMEFRSLTSEESTVYYCVRRELDFFDYWGQGTSVTVSS
VL: B1 VL with V4L, L37M, G83A
Kd: 0.41 nM | koff: 0.0005 s⁻¹ | kon: 1.2e+06 M⁻¹ s⁻¹

B6: HCV 208A-334 (antibody, V domains shown)
VH: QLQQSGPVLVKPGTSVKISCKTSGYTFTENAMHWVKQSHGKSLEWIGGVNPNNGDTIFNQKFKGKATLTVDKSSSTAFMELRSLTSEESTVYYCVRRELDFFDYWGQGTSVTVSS
VL: B1 VL with V4L, L37M, G83A, T89A, E97G
Kd: 0.34 nM | koff: 0.00057 s⁻¹ | kon: 1.7e+06 M⁻¹ s⁻¹

B7: HCV 208B-251 (antibody, V domains shown)
VH: B5 VH with G11K, M17K, E36K, F58Y, F81L, T90P, Y93F
VL: B1 VL with V4L, Q17K, R18K, L37M, Q46H, G83A, T89A
Kd: 0.58 nM | koff: 0.00065 s⁻¹ | kon: 1.1e+06 M⁻¹ s⁻¹

B8: HCV 208A-605 (antibody, V domains shown)
VH: B1 VH with M34I
VL: B1 VL
Kd: 0.43 nM | koff: 0.00037 s⁻¹ | kon: 870000 M⁻¹ s⁻¹

B9: HCV 208B-556 (antibody, V domains shown)
VH: B5 VH with G11K, E36K
VL: B1 VL with V4L, L37M, G83A
Kd: 0.4 nM | koff: 0.0006 s⁻¹ | kon: 1.5e+06 M⁻¹ s⁻¹

B10: HCV 208A-222 (antibody, V domains shown)
VH: B1 VH with K19R, M43K, S54N, F103Y
VL: B1 VL
Kd: 0.31 nM | koff: 0.00035 s⁻¹ | kon: 1.1e+06 M⁻¹ s⁻¹

B11: HCV 208A-159 (antibody, V domains shown)
VH: B5 VH with V8A, L9Q, G11K, E36K, G64D, T67A, F81L
VL: B1 VL with V4L, L37V, S56A, G83A, T87A, T89A
Kd: 0.45 nM | koff: 0.00065 s⁻¹ | kon: 1.4e+06 M⁻¹ s⁻¹

B12: HCV 208B-1094 (antibody, V domains shown)
VH: B2 VH with K63R
VL: DIVLTQSPASLIVSLGQTATISCRASQSLSTSRFSYVHWIQQKPGQPPKLLIKYASNLESGVPVRFSGSGSGTDFTLNIHPVEEEDTATYFCQHSWEFPFTFGSGTKLKIKR
Kd: 0.16 nM | koff: 0.00025 s⁻¹ | kon: 1.5e+06 M⁻¹ s⁻¹

B13: HCV 208A-638 (antibody, V domains shown)
VH: QGQLQQPGAEFVKPGASLKLSCRASGYTFTSYWIHWVKQRPGQGLEWIGEVDPSDSYINQNEKFRGKATLTVDKSSSTAYMQLGSLTSEDSAVYYCARHYYGVLDSWGQGTALTVSS
VL: QIVLTQSPTIMSASLGERVTMTCTASSSVSSSYLHWFQQKPGSSPKLWIYSTSNLASGVPPRFSGSGSGTSYSLSISSVEAEDVATYYCLQFHRSPWTFGGGAKLEIKR
Kd: 0.2 nM | koff: 0.00053 s⁻¹ | kon: 2.7e+06 M⁻¹ s⁻¹

B14: HCV 208B-189 (antibody, V domains shown)
VH: QVHLQQSGAELAKPGASVQMSCKASGYTFTANKMHWARQRPRQGLEWIGYIDPASGYTEYNQKIKDRATLTADKSSSTAYMQLSSLTSEDSAVYYCTNFAYWGQGTLVTVST
VL: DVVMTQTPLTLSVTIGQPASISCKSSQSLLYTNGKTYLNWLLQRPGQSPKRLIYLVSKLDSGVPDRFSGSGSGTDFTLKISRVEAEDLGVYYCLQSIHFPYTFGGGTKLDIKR
Kd: 0.17 nM | koff: 0.00015 s⁻¹ | kon: 880000 M⁻¹ s⁻¹

B15: HCV 208A-352 (antibody, V domains shown)
VH: QGQMQQSGAELVKPGASVKLSCKTSGFTFSSSFISWLKQKPGQSLEWIAWIYAGTGNTNYNQKFTDKAQLTVDTSSSTAYMQFSSLTTEDSAIYYCAISGTGFTYWGQGTLVTVSA
VL: DVLMAQTPLSLPVTLGDQASISCRSSQSLVHSNGNTYLEWFLQKPGQSPKLLIYNVSNRFSGVPDRFSGSGSGTDFTLKISRVEAEDLGVYYCFQGSHVPLTFGSGTKLEIKR
Kd: 0.52 nM | koff: 5.4e-05 s⁻¹ | kon: 100000 M⁻¹ s⁻¹

B16: HCV 208B-471 (antibody, V domains shown)
VH: QGQLQQSGPVLVKPGASEILYCKTSGFTFSSTYISWLKQKPGQSLEWIAWIYAGTGATNYNQKFTGKAQLTVDASSNTAYMHFSGLTPEDSAIYYCAISGAGVYWGQGTLVTVSA
VL: B15 VL with L3V, A5T, T14S, V30L, F41Y, K50N, T77A, E84G, S105A, I111L
Kd: 0.25 nM | koff: 5.5e-05 s⁻¹ | kon: 220000 M⁻¹ s⁻¹

B17: HCV 208B-1024 (antibody, V domains shown)
VH: EVQLVESGGDLVKPGGSLKLSCAASGFTFSNYGMSWVRQTPDKRLEWVATISSGGSYSYYPDSVKGRFTISRDNAKNILYLQMSSLKSEDTAMYYCASLYYGYGDYWGQGTAFTVSS
VL: B15 VL with A5T, T14S, L29I, F41Y, P45L, N55R, L101W, S105G
Kd: 15 nM | koff: 0.014 s⁻¹ | kon: 1e+06 M⁻¹ s⁻¹

B18: HCV 208A-134 (antibody, V domains shown)
VH: B15 VH with V12A, F33Y, F83L
VL: EVLMTQSPLSLPVSLGDQASISCRSSQSLEHTNGNTYLEWFLQRPGQPPKLLIYKVSSRFSGVPDRFSGSGSGTDFTLKISRVEAEDLGVYYCFQGSHVPFTFGSGTKLAIKR
Kd: 2.1 nM | koff: 3.8e-05 s⁻¹ | kon: 18000 M⁻¹ s⁻¹

B19: HCV 208A-983 (antibody, V domains shown)
VH: B15 VH with F33Y, I34F, N59I, S75A, Y80F, F83L, T88I
VL: B15 VL with A5T, T14N, V30L, L101F, E110A
Kd: 0.46 nM | koff: 4.6e-05 s⁻¹ | kon: 97000 M⁻¹ s⁻¹

B20: HCV 208B-281 (antibody, V domains shown)
VH: B15 VH with M4L, F33Y, K40R, N57G, T104I
VL: B15 VL with A5T, T14S, S32N, N55K, L101F
Kd: 96 nM | koff: 0.00025 s⁻¹ | kon: 2200 M⁻¹ s⁻¹

B21: HCV 208B-174 (antibody, V domains shown)
VH: EVKLEESGGGLVQPGGSMKLSCVASGFSFSSYWMSWVRQSPEKGLDWVAEIRLRSDNYATHYAESVKGRFTISRDDSISRLYLQMNTLRAEDTGIYYCTWMTYWGQGTLVTVSA
VL: QNVLTQSPAIMSASPGEKVTMSCSASSSVTYMFWYQLKPESSPRLLIYDTSNLASGVPVRFSGSGSGTSYSLTISRMEAEDAATYYCQEWSSYPLTFGAGTKLDLKR
Kd: 0.25 nM | koff: 0.00018 s⁻¹ | kon: 760000 M⁻¹ s⁻¹

B22: HCV 208B-672 (antibody, V domains shown)
VH: EVKLVESGGSLVQPGGSLKLSCAASGFNFNTYAMSWVRQTPEKRLEWVAYISNGGGNTYYVDTVKGRFTISRDNAKNTLYLRMSSLKSEDTAMYYCARHGLYWGYSMDYWGQGTSVTVSS
VL: DIQMTQSPSSLSASLGERVSLTCRASQDIGGSINWLQQEPDGTIKRLIYATSSLDSGVPKRFSGSRSGSDYSLTISSLESEDFVDYYCLQYASSPPTFGGGTKLEIKR
Kd: 0.16 nM | koff: 0.00034 s⁻¹ | kon: 2.2e+06 M⁻¹ s⁻¹

B23: HCV 208B-589 (antibody, V domains shown)
VH: QVQLQQSGAGLAKPGASVKMSCKASGYTFTANKMHWAKQRPGQGLEWIGYIDPSSGYTEYNHKIQDKATLTADTSSSTAYMQLSSLTFEDSAVYYCTNFAYWGQGTLVTVSA
VL: DIVMTQTPLTLSVTIGQPASISCKSSQSLLFTNGKTYLNWFLQRPGQSPKRLIYLLSKLDSGVPDRFSGSGSGTDFTLKISRVEAEDLGVYYCLQSTYFPLTFGAGTKLELKR
Kd: 0.63 nM | koff: 0.00061 s⁻¹ | kon: 960000 M⁻¹ s⁻¹

B24: HCV 208B-547 (antibody, V domains shown)
VH: B23 VH with G10E, A31S, H62Q, Q65K, T74K, F88S
VL: EVVLTQSPAITAASLGQKVTITCRASSSVSYMHWYRQKSGTSPQPWIYEISTLASGVPTRFRASGSGTSYSLTISSMEAEDAAIYYCQQWNYPLTFGAGTKLELKR
Kd: 3.2 nM | koff: 0.0049 s⁻¹ | kon: 1.6e+06 M⁻¹ s⁻¹

B25: HCV 208A-877 (antibody, V domains shown)
VH: QLQQSGPELVKPGASVKISCKTSGYTFTENAMHWVKQSRGKSLEWIGGVNPNNGDTVYTQKFKGKATLTVAKSSSTAYMELRTMTCEESTVYYCASREPDFFDYWGQGSSVTVSS
VL: QIVLTQSPAIMSVSPGEKVSMTCSASSSVTYMHWYQQKSGTSPKRWIYDTSELASGVPARFSGSGSGTTYSLTISSMEAEDAATYYCQQWSNKPLTFGAGTKLELKR
Kd: 2.2 nM | koff: 0.0024 s⁻¹ | kon: 1.1e+06 M⁻¹ s⁻¹

— patent publication US9371374 (AbbVie / Abbott, dated 2016)
